Measured values published in article doi:10.1101/2021.12.21.473721 (bioRxiv, 2021).

Target: the molecule itself
Test: SEC

B1: bacteriophage MS2 coat protein, wildtype (MS2[WT]) (natural protein)
chain: ASNFTQFVLVDNGGTGDVTVAPSNFANGVAEWISSNSRSQAYKVTCSVRQSSAQNRKYTIKVEVPKVATQTVGGVELPVAAWRSYLNMELTIPIFATNSDCELIVKAMQGLLKDGNPIPSAIAANSGIY
- binding result: binds
